Source: article PMC4880445, “Structure of a Holliday junction complex reveals mechanisms governing a highly regulated DNA transaction” (eLife, 2016)

B1: bacteriophage λ integrase (Int) (enzyme)
chain: MGRRRSHERRDLPPNLYIRNNGYYCYRDPRTGKEFGLGRDRRIAITEAIQANIELFSGHKHKPLTARINSDNSVTLHSWLDRYEKILASRGIKQKTLINYMSKIKAIRRGLPDAPLEDITTKEIAAMLNGYIDEGKAASAKLIRSTLSDAFREAIAEGHITTNHVAATRAAKSEVRRSRLTADEYLKIYQAAESSPCWLRLAMELAVVTGQRVGDLCEMKWSDIVDGYLYVEQSKTGVKIAIPTALHIDALGISMKETLDKCKEILGGETIIASTRREPLSSGTVSRYFMRARKASGLSFEGDPPTFHELRSLSARLYEKQISDKFAQHLLGHKSDTMASQYRDDRGREWDKIEIK
notes: Integrase (Int) of bacteriophage λ, tyrosine recombinase; The model holds the NTD (residues 1-55), the NTD-CB linker (56-74) and the CB and catalytic domains (75-356); The NTD of Int-C is not in the model; also called site-specific recombinase; Int-B

Assays:
[1] = molecular target: the molecule itself; assay: cryo-EM structure; excisive Holliday junction complex trapped by in vitro recombination of attL and attR (150 nM IHF, 350 nM Xis, 350 nM Int, 25 mM HEPES pH 7.5, room temperature); crosslinked with 0.0035% glutaraldehyde; purified on sucrose gradients; single particle map at about 11 Å; model built by fitting known crystal and NMR structures into the density
[2] = molecular target: B1; assay: as above; conditions: both partners purified

Binder | stoichiometry N [1] | binding result [2]
B1 | 4 | 
bacteriophage λ Xis protein (natural protein, UniProt P03699 1-72, looked up, Virally encoded accessory DNA-bending protein Xis of bacteriophage λ; The 18 C-terminal residues are missing from the model, as in the Xis-DNA crystal structures; also called Xis1.5) MYLTLQEWNARQRRPRSLETVRRWVRECRIFPPPVKDGREYLFHESAVKVDLNRPVTGGLLKRIRNGKKAKS |  | binds
